Experiments:
Assay in all cases: fluorescence anisotropy; Fluorescence anisotropy: 25 nM RNA, 100 mM NaCl, 25 mM HEPES pH 6.8, 0.2 mM TCEP; temperature not stated; three replicates
Conditions in all cases: protein: recombinant; label: 5'-fluorescein; single strand
U2AF2 12L Arg149Trp = U2AF2 12L Arg149Trp (UniProt P26368 141-342, R149W)
U2AF2 12L Arg150Cys = U2AF2 12L Arg150Cys (UniProt P26368 141-342, R150C)
U2AF2 12L Arg150His = U2AF2 12L Arg150His (UniProt P26368 141-342, R150H)
U2AF2 12L WT = U2AF2 12L WT (UniProt P26368 141-342)
Sequence of U2AF2 12L WT (P26368 141-342): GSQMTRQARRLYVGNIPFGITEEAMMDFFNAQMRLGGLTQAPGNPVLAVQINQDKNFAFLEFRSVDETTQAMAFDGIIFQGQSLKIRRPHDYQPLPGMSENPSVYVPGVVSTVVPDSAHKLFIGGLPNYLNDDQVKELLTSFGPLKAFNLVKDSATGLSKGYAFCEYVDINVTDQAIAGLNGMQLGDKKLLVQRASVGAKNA

Sequence of U2AF2 12L Arg150His (P26368 141-342 R150H): as the sequence (P26368 141-342) above, with R10H counted along it
Sequence of U2AF2 12L Arg149Trp (P26368 141-342 R149W): as the sequence (P26368 141-342) above, with R9W counted along it
Sequence of U2AF2 12L Arg150Cys (P26368 141-342 R150C): as the sequence (P26368 141-342) above, with R10C counted along it

UUUUUUUUU (ssRNA) [nine-uridine consensus Py tract RNA]
binding signal (U2AF2 12L Arg149Trp): ~3 fold decrease in affinity vs WT | binding signal (U2AF2 12L Arg150Cys): ~5 fold decrease in affinity vs WT | binding signal (U2AF2 12L Arg150His): ~4 fold decrease in affinity vs WT | binding result (U2AF2 12L WT): binds
